Measured values: PMC10718521, “Complexity of αvβ6-integrin targeting RGD peptide trimers: emergence of non-specific binding by synergistic interaction” (RSC Medicinal Chemistry, 2023)

Columns and labels:
in vivo = assay: in vivo; parameters: species or system mice; conditions: CB17 SCID, mouse, total radioactivity
Description: The biodistribution of all ^68Ga-labeled peptide trimers was investigated in severe combined immunodeficiency (SCID) mice bearing subcutaneous xenografts of the αvβ6-integrin expressing human lung adenocarcinoma cell line H2009 on their right shoulders.
(§1) Unless otherwise noted, the materials and the instrumentation used (analytical and preparative HPLC, ESI-MS, gamma counter, centrifuge), and the experimental procedures (^68Ga radiolabeling and radio-TLC for quality control, determination of log D7.4, cultivation of H2009 human lung adenocarcinoma cells, generation of tumor xenografts in CB17 SCID mice, small-animal PET, and biodistribution) were described before.[19] All animal experiments have been carried out according to applicable law and institutional guidelines of Technical University of Munich, and were approved by the responsible local authority (Regierung von Oberbayern). The H2009 cells were regularly authenticated and tested for mycoplasma contamination. The affinities of the pentynoic amide functionalized peptides were determined employing a well-established ELISA protocol on immobilized integrins.[36] TRAP-triazide,[38]FF (previously termed AvB6),[32] and YY (also referred to as Tyr2-alkyne)[33] were synthesized as described previously. RP-HPLC for assessment of compound polarity was done on a 150 × 4.6 mm ReproSil-Pur 120 C18-AQ 5 μm column, with a flow of 0.75 mL min^−1 and a gradient of 10–50% MeCN in water, both containing 0.1% trifluoroacetic acid, within 15 min. The required ^natGa-complexes of the peptide trimers were synthesized by reaction with equimolar amounts of aq. GaCl3 as described.[19]

[1] = assay type: physicochemical; conditions: pH 7.4
Protocol: The trimers were labeled with ^68Ga for biodistribution and small-animal PET experiments employing a fully automated method.[39] Non-radioactive reference compounds were obtained by complexation of equimolar amounts of ^natGa^3+ in form of the aq. chloride solution.[39] The polarity of the ^68Ga or ^natGa^3+ containing conjugates, respectively, was assessed by two established proxies, namely the n-octanol/water distribution coefficient at pH 7.4, log D7.4, and the retention time tR on a reverse-phase HPLC column with a suitable liquid-phase gradient (10–50% acetonitrile in water with 0.1% trifluoroacetic acid) (see Fig. 2a). […] A measurable decrease of the log D7.4 was only observed for ≥3 Tyr. […]
as §1

[2] = tumor/organ ratio Heart (myocard)
[3] = tumor/organ ratio Large intestine (empty)
[4] = tumor/organ ratio Small intestine (empty)
[5] = tumor/organ ratio Stomach (empty)

Structure (SMILES)	tissue uptake at 1.5 h (in vivo; Adrenals uptake)	tissue uptake at 1.5 h (in vivo; Blood uptake)	tissue uptake at 1.5 h (in vivo; Heart (myocard) uptake)	tissue uptake at 1.5 h (in vivo; Kidneys uptake)	tissue uptake at 1.5 h (in vivo; Large intestine (empty) uptake)	tissue uptake at 1.5 h (in vivo; Liver uptake)	tissue uptake at 1.5 h (in vivo; Lung uptake)	tissue uptake at 1.5 h (in vivo; Muscle uptake)	tissue uptake at 1.5 h (in vivo; Pancreas uptake)	tissue uptake at 1.5 h (in vivo; Small intestine (empty) uptake)	tissue uptake at 1.5 h (in vivo; Spleen uptake)	tissue uptake at 1.5 h (in vivo; Stomach (empty) uptake)	tissue uptake at 1.5 h (in vivo; Tumor H2009 uptake)	tissue to tissue ratio at 1.5 h (in vivo; tumor/organ ratio Adrenals)	tissue to tissue ratio at 1.5 h (in vivo; tumor/organ ratio Blood)	tissue to tissue ratio at 1.5 h (in vivo; [2])	tissue to tissue ratio at 1.5 h (in vivo; tumor/organ ratio Kidneys)	tissue to tissue ratio at 1.5 h (in vivo; [3])	tissue to tissue ratio at 1.5 h (in vivo; tumor/organ ratio Liver)	logD [1]	also measured
CC(C)C[C@@H]1NC(=O)[C@H](CC(=O)O)NC(=O)CNC(=O)[C@H](CCCNC(=N)N)NC(=O)[C@H](Cc2ccccc2)NC(=O)[C@H](CCCCNC(=O)CCc2cn(CCCNC(=O)CCP(=O)(O)CN3CCN(CP(=O)(O)CCC(=O)NCCCn4cc(CCC(=O)NCCCC[C@H]5C(=O)N[C@@H](Cc6ccccc6)C(=O)N[C@@H](CCCNC(=N)N)C(=O)NCC(=O)N[C@@H](CC(=O)O)C(=O)N[C@@H](CC(C)C)C(=O)N[C@@H](C)C(=O)N[C@@H](Cc6ccc(O)cc6)C(=O)N6CCC[C@@H]6C(=O)N5C)nn4)CCN(CP(=O)(O)CCC(=O)NCCCn4cc(CCC(=O)NCCCC[C@H]5C(=O)N[C@@H](Cc6ccccc6)C(=O)N[C@@H](CCCNC(=N)N)C(=O)NCC(=O)N[C@@H](CC(=O)O)C(=O)N[C@@H](CC(C)C)C(=O)N[C@@H](C)C(=O)N[C@@H](Cc6ccc(O)cc6)C(=O)N6CCC[C@@H]6C(=O)N5C)nn4)CC3)nn2)N(C)C(=O)[C@H]2CCCN2C(=O)[C@H](Cc2ccc(O)cc2)NC(=O)[C@H](C)NC1=O (68Ga complex, metal not drawn) [Y3F]	0.77 ± 0.42 %ID/g	0.96 ± 0.3 %ID/g	0.62 ± 0.15 %ID/g	71.1 ± 15 %ID/g	5.15 ± 2.63 %ID/g	0.95 ± 0.22 %ID/g	4.83 ± 1.54 %ID/g	0.66 ± 0.25 %ID/g	0.34 ± 0.11 %ID/g	2.6 ± 0.9 %ID/g	2.38 ± 0.31 %ID/g	5.64 ± 1.94 %ID/g	6.69 ± 1.21 %ID/g	10.3 ± 3.8	7.2 ± 1.1	10.9 ± 0.8	0.1	1.6 ± 0.7	7.1 ± 0.7	-1.8 ± 0.1	tissue to tissue ratio at 1.5 h (in vivo; tumor/organ ratio Lung): 1.5 ± 0.3; tissue to tissue ratio at 1.5 h (in vivo; tumor/organ ratio Muscle): 10.9 ± 3; tissue to tissue ratio at 1.5 h (in vivo; tumor/organ ratio Pancreas): 20.4 ± 3.1; tissue to tissue ratio at 1.5 h (in vivo; [4]): 2.7 ± 0.5; tissue to tissue ratio at 1.5 h (in vivo; tumor/organ ratio Spleen): 2.8 ± 0.4; tissue to tissue ratio at 1.5 h (in vivo; [5]): 1.3 ± 0.3
CC(C)C[C@@H]1NC(=O)[C@H](CC(=O)O)NC(=O)CNC(=O)[C@H](CCCNC(=N)N)NC(=O)[C@H](Cc2ccc(O)cc2)NC(=O)[C@H](CCCCNC(=O)CCc2cn(CCCNC(=O)CCP(=O)(O)CN3CCN(CP(=O)(O)CCC(=O)NCCCn4cc(CCC(=O)NCCCC[C@H]5C(=O)N[C@@H](Cc6ccc(O)cc6)C(=O)N[C@@H](CCCNC(=N)N)C(=O)NCC(=O)N[C@@H](CC(=O)O)C(=O)N[C@@H](CC(C)C)C(=O)N[C@@H](C)C(=O)N[C@@H](Cc6ccccc6)C(=O)N6CCC[C@@H]6C(=O)N5C)nn4)CCN(CP(=O)(O)CCC(=O)NCCCn4cc(CCC(=O)NCCCC[C@H]5C(=O)N[C@@H](Cc6ccc(O)cc6)C(=O)N[C@@H](CCCNC(=N)N)C(=O)NCC(=O)N[C@@H](CC(=O)O)C(=O)N[C@@H](CC(C)C)C(=O)N[C@@H](C)C(=O)N[C@@H](Cc6ccccc6)C(=O)N6CCC[C@@H]6C(=O)N5C)nn4)CC3)nn2)N(C)C(=O)[C@H]2CCCN2C(=O)[C@H](Cc2ccccc2)NC(=O)[C@H](C)NC1=O (68Ga complex, metal not drawn) [Y3Y]	0.81 ± 0.41 %ID/g	1.13 ± 0.25 %ID/g	0.66 ± 0.16 %ID/g	72.6 ± 5.25 %ID/g	3.94 ± 1.85 %ID/g	1.23 ± 0.19 %ID/g	4.96 ± 0.48 %ID/g	0.51 ± 0.11 %ID/g	0.33 ± 0.07 %ID/g	1.69 ± 0.2 %ID/g	3.82 ± 0.82 %ID/g	4.03 ± 1.36 %ID/g	5.92 ± 2.07 %ID/g	6.7 ± 3	4.9 ± 0.5	8.5 ± 1.1	0.1	1.8 ± 1.1	4.4 ± 0.7	-1.7 ± 0.1	tissue to tissue ratio at 1.5 h (in vivo; tumor/organ ratio Lung): 1 ± 0.2; tissue to tissue ratio at 1.5 h (in vivo; tumor/organ ratio Muscle): 10.7 ± 1.1; tissue to tissue ratio at 1.5 h (in vivo; tumor/organ ratio Pancreas): 17 ± 1.4; tissue to tissue ratio at 1.5 h (in vivo; [4]): 3.2 ± 0.6; tissue to tissue ratio at 1.5 h (in vivo; tumor/organ ratio Spleen): 1.4 ± 0.2; tissue to tissue ratio at 1.5 h (in vivo; [5]): 1.5 ± 0.7
CC(C)C[C@@H]1NC(=O)[C@H](CC(=O)O)NC(=O)CNC(=O)[C@H](CCCNC(=N)N)NC(=O)[C@H](Cc2ccccc2)NC(=O)[C@H](CCCCNC(=O)CCc2cn(CCCNC(=O)CCP(=O)(O)CN3CCN(CP(=O)(O)CCC(=O)NCCCn4cc(CCC(=O)NCCCC[C@H]5C(=O)N[C@@H](Cc6ccc(O)cc6)C(=O)N[C@@H](CCCNC(=N)N)C(=O)NCC(=O)N[C@@H](CC(=O)O)C(=O)N[C@@H](CC(C)C)C(=O)N[C@@H](C)C(=O)N[C@@H](Cc6ccc(O)cc6)C(=O)N6CCC[C@@H]6C(=O)N5C)nn4)CCN(CP(=O)(O)CCC(=O)NCCCn4cc(CCC(=O)NCCCC[C@H]5C(=O)N[C@@H](Cc6ccc(O)cc6)C(=O)N[C@@H](CCCNC(=N)N)C(=O)NCC(=O)N[C@@H](CC(=O)O)C(=O)N[C@@H](CC(C)C)C(=O)N[C@@H](C)C(=O)N[C@@H](Cc6ccc(O)cc6)C(=O)N6CCC[C@@H]6C(=O)N5C)nn4)CC3)nn2)N(C)C(=O)[C@H]2CCCN2C(=O)[C@H](Cc2ccccc2)NC(=O)[C@H](C)NC1=O (68Ga complex, metal not drawn) [Y4]	0.71 ± 0.37 %ID/g	0.86 ± 0.26 %ID/g	0.47 ± 0.12 %ID/g	91.3 ± 8.28 %ID/g	2.29 ± 0.59 %ID/g	0.93 ± 0.14 %ID/g	3.22 ± 0.63 %ID/g	1.41 ± 0.06 %ID/g	0.28 ± 0.08 %ID/g	1.35 ± 0.53 %ID/g	1.57 ± 0.57 %ID/g	4.92 ± 1.06 %ID/g	4.47 ± 0.96 %ID/g	7.1 ± 1.9	5.5 ± 1.4	9.6 ± 1.3	0.1	2.1 ± 0.6	5 ± 0.5	-1.9 ± 0.1	tissue to tissue ratio at 1.5 h (in vivo; tumor/organ ratio Lung): 1.4 ± 0.2; tissue to tissue ratio at 1.5 h (in vivo; tumor/organ ratio Muscle): 12.2 ± 2.8; tissue to tissue ratio at 1.5 h (in vivo; tumor/organ ratio Pancreas): 16.5 ± 1.6; tissue to tissue ratio at 1.5 h (in vivo; [4]): 3.7 ± 1; tissue to tissue ratio at 1.5 h (in vivo; tumor/organ ratio Spleen): 3 ± 0.7; tissue to tissue ratio at 1.5 h (in vivo; [5]): 1 ± 0.3
CC(C)C[C@@H]1NC(=O)[C@H](CC(=O)O)NC(=O)CNC(=O)[C@H](CCCNC(=N)N)NC(=O)[C@H](Cc2ccc(O)cc2)NC(=O)[C@H](CCCCNC(=O)CCc2cn(CCCNC(=O)CCP(=O)(O)CN3CCN(CP(=O)(O)CCC(=O)NCCCn4cc(CCC(=O)NCCCC[C@H]5C(=O)N[C@@H](Cc6ccc(O)cc6)C(=O)N[C@@H](CCCNC(=N)N)C(=O)NCC(=O)N[C@@H](CC(=O)O)C(=O)N[C@@H](CC(C)C)C(=O)N[C@@H](C)C(=O)N[C@@H](Cc6ccc(O)cc6)C(=O)N6CCC[C@@H]6C(=O)N5C)nn4)CCN(CP(=O)(O)CCC(=O)NCCCn4cc(CCC(=O)NCCCC[C@H]5C(=O)N[C@@H](Cc6ccc(O)cc6)C(=O)N[C@@H](CCCNC(=N)N)C(=O)NCC(=O)N[C@@H](CC(=O)O)C(=O)N[C@@H](CC(C)C)C(=O)N[C@@H](C)C(=O)N[C@@H](Cc6ccc(O)cc6)C(=O)N6CCC[C@@H]6C(=O)N5C)nn4)CC3)nn2)N(C)C(=O)[C@H]2CCCN2C(=O)[C@H](Cc2ccc(O)cc2)NC(=O)[C@H](C)NC1=O (68Ga complex, metal not drawn) [Y6]	0.5 ± 0.11 %ID/g	1.03 ± 0.21 %ID/g	0.59 ± 0.11 %ID/g	95.7 ± 12.6 %ID/g	4.36 ± 0.77 %ID/g	0.73 ± 0.11 %ID/g	4.47 ± 1.12 %ID/g	0.68 ± 0.18 %ID/g	0.27 ± 0.04 %ID/g	2.72 ± 1.15 %ID/g	3.91 ± 0.91 %ID/g	6.24 ± 1.24 %ID/g	7.52 ± 1.21 %ID/g							-2.1 ± 0.1	
